From patent publication US20090191211A1 (ONCOTHERAPY SCIENCE, published 2009) come the findings set out here.

The assay concerns the target T1, EphA4 (Eph receptor A4) (human, UniProt P54764 20-986).
T1 construct: Endogenous EphA4 on the human pancreatic cancer cell line MIAPaca-2 (over-expressing); also called EpbA4
Briefly: flow cytometry on EphA4 over-expressing MIAPaca-2 cells. The method, then:
Cancer cells (5×10⁶) were incubated at 4° C. for 30 minutes with the purified polyclonal antibody (pAb), monoclonal antibodies (mAb), rabbit IgG (the control for pAb) or mouse IgG (the control for mAb). Cells were washed with phosphate buffer solution (PBS) and then incubated at 4° C. for 30 minutes in FITC-labeled Alexa Fluor 488. The cells were again washed in PBS, and analyzed on a flow cytometer (FACSCalibur®, Becton Dickinson) and then analyzed by BD CellQuest™ Pro software (Becton Dickinson). Mean fluorescence intensity (MFI) was defined as a ratio of the flow cytometric intensity (intensity by each protein specific antibody/intensity by rabbit IgG).
Using EphA4 over-expressing cells, the binding ratios of anti-EphA4 antibodies on the cell surface were investigated.
On the technique in general: Flow cytometry measures light scatter and fluorescence of single cells or particles in a stream.

T1 sequence (P54764 20-986): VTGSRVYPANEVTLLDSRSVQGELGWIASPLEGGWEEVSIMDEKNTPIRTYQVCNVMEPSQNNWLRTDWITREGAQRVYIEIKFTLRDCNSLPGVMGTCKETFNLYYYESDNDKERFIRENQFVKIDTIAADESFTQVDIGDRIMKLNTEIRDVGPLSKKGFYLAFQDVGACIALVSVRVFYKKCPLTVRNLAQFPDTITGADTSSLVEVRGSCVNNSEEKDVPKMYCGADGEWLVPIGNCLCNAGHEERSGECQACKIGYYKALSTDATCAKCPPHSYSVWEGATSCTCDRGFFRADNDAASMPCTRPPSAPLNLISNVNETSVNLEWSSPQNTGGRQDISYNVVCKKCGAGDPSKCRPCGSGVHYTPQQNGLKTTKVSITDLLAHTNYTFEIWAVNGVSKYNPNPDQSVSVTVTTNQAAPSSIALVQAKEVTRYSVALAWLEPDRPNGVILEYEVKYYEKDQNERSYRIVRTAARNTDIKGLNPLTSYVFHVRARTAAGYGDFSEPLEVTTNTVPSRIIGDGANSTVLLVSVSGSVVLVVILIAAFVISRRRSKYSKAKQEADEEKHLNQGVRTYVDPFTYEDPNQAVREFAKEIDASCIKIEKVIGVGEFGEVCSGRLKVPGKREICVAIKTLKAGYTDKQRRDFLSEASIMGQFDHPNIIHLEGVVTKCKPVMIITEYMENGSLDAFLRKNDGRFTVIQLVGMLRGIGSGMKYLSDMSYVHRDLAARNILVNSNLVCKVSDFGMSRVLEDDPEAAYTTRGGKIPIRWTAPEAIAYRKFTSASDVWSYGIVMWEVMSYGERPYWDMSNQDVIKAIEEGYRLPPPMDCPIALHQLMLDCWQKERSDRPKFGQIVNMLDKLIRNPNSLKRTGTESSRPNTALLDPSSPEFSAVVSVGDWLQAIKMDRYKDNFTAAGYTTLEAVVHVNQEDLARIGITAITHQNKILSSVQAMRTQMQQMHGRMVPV

B1: anti-EphA4 human antibody 65 (antibody, V domains shown)
VH: QVQLVQSGAEVKKPGASVKVSCKVSGYTLTELSMHWVRQAPGKGLEWMGGFDPEDGETIYAQKFQGRVTMTEDTSTDTAYMELSSLRSEDTAVYYCATAQPFHWGDDAFDIWGQGTMVTVSS
VL: not shown
notes: also called clone 65
B1: the MFI was 12.6 ratio (intensity by specific antibody / intensity by control IgG).

B2: anti-EphA4 human antibody 336 (antibody, V domains shown)
VH: QVQLQQSGPGLVKPSQTLSLTCAISGDSVSSNSAAWNWIRQSPSRGLEWLGRTYYRSKWYNDYAVSVKSRITINPDTSKNQFSLQLNSVTPEDTAVYYCARDSLRSFDYWGQGTLVTVSS
VL: QSVLTQPPSVSAAPGQKVTISCSGSSSNIGNNYVSWYQQLPGTAPKLLIYDNNKRPSGIPDRFSGSKSGTSATLGITGLQTGDEADYYCGTWDSSLSAVVFGGGTKLTVLG
For the molecule B2, the MFI was 15.5 ratio (intensity by specific antibody / intensity by control IgG).
